Data from publication PMC10502012.

How the values were obtained:
[1] = molecular target: chicken PHT1 (purified, wild type) (chicken); assay: thermal shift (nanoDSF); TASL peptide titration: PHT1 with eleven 2-fold peptide dilutions from 100 µM; gel filtration buffer with 5% DMSO; KD fitted by a modified Hall's method
[2] = molecular target: chicken PHT1 (purified, wild type) (chicken); assay: thermal shift (nanoDSF); concentration-dependent thermal shift of PHT1 with dipeptides; KD fitted by a modified Hall's method

| Kd [1] | Kd [2] | Substance |
| --- | --- | --- |
| 0.36 µM |  | TASL_(1-13) peptide |
|  | 73 µM | Arginine-Phenylalanine dipeptide |
|  | 63 µM | Lysine-Valine dipeptide |
| 0.4 µM |  | TASL peptide with a length of 14 residues |
